From US20110144312A1 (Kyowa Kirin, published 2011) come the findings set out here.

Test [1] concerns the target T1, Biotin-SGSTLDLYHSNGYRARVRAVDG-NH2 (human, N-terminal biotin, C-terminal amide (-NH2)).
T1 peptide: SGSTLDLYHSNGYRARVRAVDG
As to the kind of experiment: ELISA, biotinylated peptide on Extravidin or Neutravidin plates. As to the method:
(§1) Multiple ELISA methods were also employed to detect binding of anti-IL-10Rα antibodies to IL-10Rα, derived peptides. The biotinylated IL-10Rα derived peptides (SEQ ID NO. 86-87) were diluted to 1 μg/ml in TBS/BSA/0.05% Tween 20 and added to Extravidin or Neutravidin pre-coated ELISA plates (Pierce) for 2 hours at room temperature. After washing three times with TBS/BSA/0.05% Tween 20. The purified anti-human IL-10Rα antibodies were diluted in TBS/BSA/0.05% Tween 20 and added to the wells. The plates were incubated for 1 hour at room temperature. The plates were washed 3 times with TBS/0.05% Tween 20 and peroxidase-conjugated goat anti-human IgG (Fcγ specific), anti-rat IgG, or anti-mouse IgG detection antibodies (Jackson Immunoresearch) were added. Following 1 hour incubation at room temperature, the plates were washed and the TMB (Sigma) substrate was added and incubated at room temperature for 5 to 10 minutes. The reaction was stopped with H₂SO₄ (LabChem) and the optical density was measured at 450 nm using a microplate reader. An OD reading above background wells with no primary antibody is indicative of antibody binding to the peptides. […] The antibodies only bound the positive control biotinylated recombinant human IL-10Rα:hFc protein. […] Antibody binding was detected with species-specific anti-IgG-HRP secondary antibodies. […]
For orientation: In an ELISA, binding on a coated surface is turned into a signal by an enzyme label.

Test [2] deals with T2, Biotin-SGSTYSIFSHFREYEIAIRKV-NH2 (human, N-terminal biotin, C-terminal amide (-NH2)).
T2 peptide: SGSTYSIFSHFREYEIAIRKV
The description is as above. On the procedure:
as §1

Test [3] has as its target T3, SNP variant R212E of human IL-10Rα extracellular domain fused to the Fc portion of human IgG1 (human).
T3 construct: The entry already holds the change and includes the signal peptide
As to the kind of experiment: ELISA, coated SNP variant Fc fusion R212E [E].

T3 sequence (chain, as listed by the source R212E R212E limits assumed): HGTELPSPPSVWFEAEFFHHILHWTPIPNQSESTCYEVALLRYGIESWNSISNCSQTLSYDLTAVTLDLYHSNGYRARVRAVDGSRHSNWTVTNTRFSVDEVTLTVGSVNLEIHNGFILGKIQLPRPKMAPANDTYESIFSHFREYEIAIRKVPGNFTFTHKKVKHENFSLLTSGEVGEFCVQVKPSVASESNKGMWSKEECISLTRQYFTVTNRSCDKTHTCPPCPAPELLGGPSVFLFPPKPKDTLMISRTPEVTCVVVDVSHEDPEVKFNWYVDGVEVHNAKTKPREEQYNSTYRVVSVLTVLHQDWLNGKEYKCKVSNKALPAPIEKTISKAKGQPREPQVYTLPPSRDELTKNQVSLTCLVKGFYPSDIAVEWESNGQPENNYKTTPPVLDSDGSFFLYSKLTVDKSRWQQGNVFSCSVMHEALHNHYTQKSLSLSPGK

B1: 136C5 (antibody, V domains shown)
VH: EVQLVESGGGLVQPGGSLRLSCAASGFTFSSYSMNWVRQAPGKGLEWVSYISTGSSTIYYADSVKGRFTISRDNAKNSLYLQMNSLRDEDTAVYYCARENYYGSGSYEDYFDYWGQGTLVTVSS
VL: EIVLTQSPATLSLSPGERATLSCRASQSVSSYLAWYQQKPGQAPRLLIYDASNRATGIPARFSGSGSGTDFTLTISSLEPEDFAVYYCQQRSNWPIFTFGPGTKVDIK
notes: Hybridoma antibody, human IgG1, kappa light chain; also called human anti-human IL-10Rα monoclonal antibody 136C5; hybridoma deposit PTA-9131
Turning to B1, the binding result in test [1] and in test [2] was “no binding (tested: 1 µg/ml peptide)” in each case.

B2: 136C8 (antibody, V domains shown)
VH: EVQLVESGGGLVQPGGSLRLSCAASGFTFSSYSMNWVRQAPGKGLEWVSYISTRSSTIYYADSVKGRFTISRDNAKNSLYLQMNSLRDEDTAVYYCARENYYGSGSYEDYFDYWGQGTLVTVSS
VL: EIVLTQSPATLSLSPGERATLSCRASQSVSSYLAWYQQKPGQAPRLLIYDASNRATGIPARFSGSGSGTDFTLTISSLEPEDFAVYYCQQRSNWPIFTFGPGTKVDIK
notes: Hybridoma antibody, human IgG2, kappa light chain; also called human anti-human IL-10Rα monoclonal antibody 136C8; hybridoma deposit PTA-9132
For the molecule B2, in test [3], the binding result is “binds”.
